Reference: US20230340555A1, “PRODUCTION OF GLYCOSYLATED CANNABINOIDS” (WILLOW BIOSCIENCES, INC., priority 2020, published 2023)

B1: CsUGT73B1: UDP-glycosyl transferase from Cannabis sativa, amino acid sequence SEQ ID NO: 36 (protein, listed as Cannabis sativa)
chain: MSKEIWVVPFFGQGHLFPSMELCKQIASRNINTLLVIPSNLSFSIPSSLRQYPLLQIVEIQPTSAPSAQPGPDPIDQPPHGNPDQFEMGLENLLQAQVTGPDSVRPICAILDVMMDWTTEVFNKFDIPTIGFFTSGACSAAMEYGLWKAQPIDLKPGEVRLLPGLPEEMAVTYLDTNQRPHQPPGPPLHLFGVGHQGPFVDGAHRPPGPPPPPYLGRAGPRQRGPPKHGSQPPWVDGLKGSIALMINTCDYLERPFIEYLTKQIGKPVWGVGPLLPEQFWNSVSSNSILHDHEIRTNRQSNVSEDDVIQWLDSKPRGSVLYVCFGTEVSPSMEEYSELADALEASTQPFIWVVHSGTGRSGPPPSRGPTQEDYFPHGLASQVGPKGLIINGWAPQLLILSHSSIGGFLTHCGWNSTVEAIGLGVPLLAWPIRGDQNYNAKLVVAHLKLGFMISDNLSEKIKKHEIVKGIKTLMGDDDIKSRARNLAAIFQKGFPISSTTNLDVFRDMINNFT
B2: CsUGT73B4: UDP-glycosyl transferase from Cannabis sativa, amino acid sequence SEQ ID NO: 34 (protein, listed as Cannabis sativa)
chain: MSKGHTIPLLHLARVLLNRHVTVTIFTTPANRSFITKFLPATSAAIVELPFPKNIPGVPNGVENTEDFPTMSMSMFYSLVLGTQNMKPDLDRALENIQTPVSFMVSDGFLWWTLDSASKLGFPRLVFYGMSHYAMAVYHSLFNSKKPKQTETETVVSDFPWIKLTRSEYDPSAQNGEDQSLAHEFMSKATEATNNSFGMIYNSFYELEPMFTDYWNQKVGPKSWPLGPLCLHDMKIESRGLVVHPWLDEKESSSVLYVAFGSQATVSSEQVREIAKGLEYSNVNFFWVLRKLEPEENKFLEEFEKRVKNRGIVVRDWVNQMEILKHKSVKGFFSHCGWNSVMESLSAGLPILGFPMMAEQHINAKMVVEEIKIGLRVKSYDGSLNGIVKSEEVSKMVKELMEGEVGKEMRKKVEEFAVMAHKAVQKGGSSWETLDLLLSSTKQRIHHY
B3: CsUGT75B2: UDP-glycosyl transferase from Cannabis sativa, amino acid sequence SEQ ID NO: 32 (protein, listed as Cannabis sativa)
chain: MVQPRFLILAFPLQGTINPCLNLANQLIRVANAQVTFVTSVNAHRLIMTTHTVATTSNNLLSFSPFFDGYDEGVTDGKGFHDHFVEFKRRGWQAVGDILELGFKEGRPYTCLVYSILLTWAADVAATHNVPASMFWMQPATVFDVYYYYFHGHKEIICANTKNHSFSLSFPRIPLTMNLKDLPSLMVDSNYSYILTMLHEMYKDFEKESNNTKIILVNTFDELEPDALRAINKFNLIGIGPLITSKTSFSFRNYIEWLNTKPKKTVVYVSFGSILILKKQQMDEIAKGLLEFGHPFLWVIKEKNSSSKEGVHEDNIKNELSYKEELEKLGMIVPWCSQMEVLRNESLGCFVTHCGWNSTLESIVSGVPVVAFPQWTDQQTNAKLIEEMWKIGVRVKPDEDGIVKSEEIKRCLELVMSKNENRTEIVKNVKKWQNLTKEAMREGGSSEKNLITFVKSIHQ

system: CN3 yeast strain host cells; test: Detection of glycosylated cannabinoids and cannabinoid precursors in yeast cells expressing UDP-glycosyl transferase (HPLC-MS); format: cell-based; details: pellet or supernatant of recombinant yeast host cells transformed with the UGT
Description: CN3 yeast strain host cells were transformed as described in Example 1 with one of the following heterologous UGT genes: (1) AtUGT73C6, (2) AtUGT73B4, (3) AtUGT71 D1, (4) AtUGT76E12, (5) AtUGT88A1, (6) HaUGT76G1-L, (7) At5g49690, (8) AtUGT76C4, (9) CsUGT73C6, (10) SrUGT76C1, (11) AtUGT85A3, (12) AtUGT73B1, (13) Atg65550, (14) AtUGT76B1, (15) ATUGT76B1, (16) CsUGT75B2, (17) CsUGT73B4, (18) CsUGT73B1, (19) CsUGT75D1-DN11028, and (20) CsUGT71D1-DN48028. The transformed host cells were pre-grown overnight in yeast extract peptone dextrose (YPD) growth medium and then back diluted into yeast extract peptone galactose (YPG) to OD600 = 0.2. […] Strains were incubated for 20 h at 28° C. rotating at 600 RPM in an EPOCH|2 microplate reader (BioTek). Subsequently, samples were treated with an extraction solvent (80 % Acetonitrile, 20 % Methanol) for 1 hour rotating at 100 RPM. After 20 minutes centrifugation at 12,000 RPM, the supernatant was filtered with a basix 13 mm syringe filter (0.22 µm pore size, Nylon membrane) and transferred to a new tube for further analysis.
Glycosylated cannabinoid compounds and glycosylated cannabinoid precursor compounds were assayed in the supernatant and the cellular pellet employing HPLC and HPLC-MS analysis. HPLC and HPLC-MS analysis was carried out as described below to detect the following glycosylated cannabinoid and cannabinoid precursor compounds: CBGA monoglucoside, CBGA diglucoside, CBDA monoglucoside, CBDA diglucoside, CBGA glucuronic acid, CBD monoglucoside, CBD diglucoside, olivetolic acid monoglucoside (“OliAcid monoglucoside”), olivetolic acid diglucoside (“OliAcid diglucoside”).
HPLC analysis was carried out on an Agilent Technologies 1290 Infinity system, consisting of a vacuum degasser, a binary pump, a thermostated autosampler, a thermostated column compartment and a diode array detector (DAD). A Zorbax Eclipse Plus EC-18 column (2.1 × 50 mm, 1.8 µm, Agilent, USA) was used with a mobile phase composed of 0.1% formic acid in both (A) water with 0.2 % Formic Acid and (B) Acetonitrile with 0.2 % Formic Acid. The chromatographic conditions were set as follows: 0.0-8.0 min linear gradient from 5 to 95% B; 8.1-9.09 min […], 9.10-11.0 min 5 to 95% A for equilibration of the column with the initial conditions. The flow rate was set at 0.4 ml/min. The column temperature was set at 40° C. The sample injection volume was 5 µL. The UV/DAD acquisitions were carried out in the range 190-400 nm and chromatograms were acquired at 265 and 350 nm.
HPLC-MS analysis was carried out to confirm the identity of the HPLC peaks using an Agilent Technologies 6530 Accurate-Mass quadrupole time of flight (QToF) mass spectrometer operating in negative ionization (ESI -) mode. The mass spectrometer experimental parameters were set as follows: the capillary voltage was 3.5 kV, the nebulizer (N2) pressure was 35 psi, the drying gas temperature was 350° C., the drying gas flow was 11 L/min and the skimmer voltage was 65 V. Data were acquired by Agilent Mass Hunter software. The mass spectrometer was operated in full-scan mode in the m/z range 50-1100. Extracted ion chromatograms (EICs) were obtained with an accuracy of 10 ppm m/z from total ion chromatogram (TIC) employing the m/z corresponding to the molecular ions [M-H]^- 385.1504 for Olivetolic Acid Mono-Glucoside, 547.2032 for Olivetolic Acid di-Glucoside, 521.2756 for CBGA Mono-Glucoside, 683.3284 for CBGA Di-Glucoside, 535.2549 for CBGA Glucuronic Acid, 519.2600 for CBDA Mono-Glucoside, 475.2701 for CBD Mono-Glucoside, 637.3302 for CBD Di-Glucoside.
The glycosylated cannabinoid compounds and glycosylated cannabinoid precursor compounds were detected in a relative and semi-quantitative fashion. […]

| Molecule | production of glycosylated cannabinoids or cannabinoid precursor compounds |
| --- | --- |
| B1 | No production |
| B2 | No production |
| B3 | No production |
